Source: patent US20030092066A1, “Purified Stat proteins and methods of purifying thereof” (published 2003)
Blank lines part the entries; values can stand above or below the molecule they belong to.

Assays:
[1] = biological target: tyrosine-phosphorylated Stat1tc, truncated Stat1 (132-713) (human) (UniProt P42224); experiment: cell-based or functional assay
[2] = biological target: tyrosine-phosphorylated human Stat1α (human) (UniProt P42224); experiment: cell-based or functional assay
[3] = biological target: nonphosphorylated human Stat1α (human) (UniProt P42224); experiment: cell-based or functional assay
[4] = biological target: the molecule itself; experiment: dimerization in solution, method not given
[5] = biological target: T1, Stat1tc (Stat1 132-713, Tyr701-phosphorylated, NEM-alkylated) (Homo sapiens, UniProt P42224 SEQ:1-582); experiment: EMSA; dimer and two-dimer complexes both displaced in <1 min; no stabilisation (lacks residues 1-131); conditions: tags: none; E. coli; initiator Met absent; phosphorylated in vitro by EGF-receptor kinase; chain copies: 2 (stated, homodimer); label: 32P (Klenow fill-in); protruding 5'-TCC, filled in; two parallel sites
T1 chain: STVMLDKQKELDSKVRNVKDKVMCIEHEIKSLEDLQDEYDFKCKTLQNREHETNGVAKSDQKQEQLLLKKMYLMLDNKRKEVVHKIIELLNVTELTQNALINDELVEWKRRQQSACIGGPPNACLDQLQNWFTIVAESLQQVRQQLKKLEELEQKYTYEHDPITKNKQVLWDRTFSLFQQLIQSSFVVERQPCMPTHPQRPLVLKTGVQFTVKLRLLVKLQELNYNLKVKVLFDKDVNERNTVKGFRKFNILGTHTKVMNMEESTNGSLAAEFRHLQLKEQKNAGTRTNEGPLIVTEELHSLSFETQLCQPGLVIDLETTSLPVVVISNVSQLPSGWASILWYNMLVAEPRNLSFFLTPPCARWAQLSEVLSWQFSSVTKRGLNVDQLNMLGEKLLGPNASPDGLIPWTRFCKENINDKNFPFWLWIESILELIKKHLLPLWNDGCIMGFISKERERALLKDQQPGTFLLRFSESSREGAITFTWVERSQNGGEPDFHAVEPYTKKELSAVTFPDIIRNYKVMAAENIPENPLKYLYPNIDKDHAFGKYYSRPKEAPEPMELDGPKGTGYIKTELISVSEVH
Procedure: FIG. 6A. Comparison of the dissociation rates of complexes containing DNA fragments with two consecutive binding sites (2×osWT, 10 bp apart) and Stat1α (right) or Stat1tc (left). 0.5×10⁻⁹ M dimer was prebound with 0.7×10⁻⁹ M radiolabelled DNA for 5 min at room temperature (lanes 1 and 8). After the addition of a 100-fold molar excess of unlabelled DNA at time point zero the reaction was further incubated for the times indicated before aliquots were loaded on a running polyacrylamide gel. At time zero two differently migrating complexes are visible, denoted “(2×(Dimer))” and “Dimer”. Unbound (free) DNA runs at the bottom of the gel.
Dissociation rate determination. Under the reaction conditions described above, each oligonucleotide (at 2×10⁻⁹ M or otherwise stated) was mixed with 0.55×10⁻⁹ M dimer of purified phosphorylated Stat1 protein. The reaction volume was scaled up to 100 μl. The reaction was incubated for 5-15 min at room temperature and for time zero, an aliquot (10 μl) was removed and loaded directly onto a pre-run polyacrylamide gel (see above). […] Gels were dried, exposed to X-ray film and labelled protein/DNA complexes and unbound labelled DNA were quantitated as described above. The half life was determined from a semi-log plot of the numerical data (shifted radioactivity over shifted radioactivity at time zero versus time). […]

Molecule: tyrosine-phosphorylated Stat1tc, truncated Stat1 (132-713) (from UniProt P42224 132-713)
displacement of dimeric and [2×(dimeric)] complexes on tandem DNA sites by excess unlabelled oligonucleotide [1]: < 1 min

B1: amino terminal domain of Stat1 (amino terminal 131 amino acids) (other)
chain: MSQWYELQQLDSKFLEQVHQLYDDSFPMEIRQYLAQWLEKQDWEHAANDVSFATIRFHDLLSQLDDQYSRFSLENNFLLQHNIRKSKRNLQDNFQEDPIQMSMIIYSCLKEERKILENAQRFNQAQSGNIQ
notes: also called 16 kDa fragment; N-terminal fragment
binding result [4]: binds

B2: 2xcfosWT tandem, 10 bp spacing (dsDNA)
DNA 1: AGTCAGTTCCCGTCAATGCATCAGGTTCCCGTCAATGCAT
DNA 2: ATGCATTGACGGGAACCTGATGCATTGACGGGAACTGACT
binding result [5]: binds

Other lines, results leading:

displacement of the [2×(dimeric)] complex on tandem DNA sites by excess unlabelled oligonucleotide [2]: > 30 min
Molecule: tyrosine-phosphorylated human Stat1α (from UniProt P42224 1-750)

percentage of Stat protein that was phosphorylated [3]: < 75%
Molecule: EGF-receptor from human carcinoma A431 cells (from UniProt P00533 25-1210)
